Data published in article PMC4556315, “Structure of the JmjC domain-containing protein NO66 complexed with ribosomal protein Rpl8” (Acta Crystallographica Section D: Biological Crystallography, 2015).
Blank lines part the entries; values can stand above or below the binder they belong to.

Tests used:
[1] = target: the molecule itself; experiment: SEC; Superdex 200 10/300, 20 mM Tris-HCl pH 7.5, 200 mM NaCl; molecular weight estimated from the elution volume
[2] = target: T1, C-terminal fragment of wild-type human NO66 (NO66^176–C) (human, UniProt Q9H6W3 176-641); experiment: crystal structure; NO66^176–C with Ni2+, NOG and Rpl8^204–224 peptide (protein:NOG:Ni2+:peptide 1:4:10:15); sitting drop, 295 K, 0.1 M imidazole pH 6.5, 0.5 M sodium acetate; 2.2 Å; settings: both partners purified
T1 construct: Cloned in pET-28a(+); Tetramer in the crystal; also called Nucleolar protein 66; wild-type NO66; source: E. coli Rosetta 2 (DE3), purified (Ni-NTA, tag removed by TEV protease, Superdex 200); not shown: His-SUMO, N-terminal, cleaved

[3] = target: T1, C-terminal fragment of wild-type human …; experiment: pull-down; GST-Rpl8 fragments immobilised on GST beads from E. coli lysate and washed, incubated with purified NO66^176–C at 277 K for 1 h; buffer B (50 mM HEPES pH 7.5, 300 mM NaCl, 0.1% Triton X-100); SDS-PAGE; settings: both partners purified

B1: NO66^176–C mutant M3 (F450A/R452A/P455A) (enzyme, human, UniProt Q9H6W3 176-641, looked up)
chain: GGEPAWDSPLRRVLAELNRIPSSRRRAARLFEWLIAPMPPDHFYRRLWEREAVLVRRQDHTYYQGLFSTADLDSMLRNEEVQFGQHLDAARYINGRRETLNPPGRALPAAAWSLYQAGCSLRLLCPQAFSTTVWQFLAVLQEQFGSMAGSNVYLTPPNSQGFAPHYDDIEAFVLQLEGRKLWRVYRPRVPTEELALTSSPNFSQDDLGEPVLQTVLEPGDLLYFPRGFIHQAECQDGVHSLHLTLSTYQRNTWGDFLEAILPLAVQAAMEENVEARAGLARDFMDYMGAQHSDSKDPRRTAFMEKVRVLVARLGHFAPVDAVADQRAKDFIHDSLPPVLTDRERALSVYGLPIRWEAGEPVNVGAQLTTETEVHMLQDGIARLVGEGGHLFLYYTVENSRVYHLEEPKCLEIYPQQADAMELLLGSYPEFVRVGDLPCDSVEDQLSLATTLYDKGLLLTKMPLALN
notes: source: E. coli Rosetta 2 (DE3), purified (Ni-NTA, tag removed by TEV protease, Superdex 200); not shown: His-SUMO, N-terminal, cleaved
- stoichiometry N [1]: 2

- binding result [2]: binds
B2: Rpl8^204–224 peptide (human ribosomal protein L8) (peptide, UniProt P62917 204-224, looked up)
peptide: MNPVEHPFGGGNHQHIGKPST
notes: Only residues 212–222 are visible in the structure; also called Rpl8 peptide; source: synthetic peptide

- binding result [3]: binds
B3: GST-Rpl8 fragment 193–224 (domain or fragment)
chain: not shown
notes: Cloned in pGEX-6P-1
